Source: publication PMC11808261

Substrate: N[C@@H](CC(=O)O)C(=O)O
Test: purified protein
Conditions: 37 °C, 5 min, PBS pH 7.0 (pH of the activity assay), pyruvoyl-dependent
[1] = variant N3, I126* = C-terminal deletion from residue 126
[2] = variant Y1, I126* = C-terminal deletion from residue 126

B1: BsADC (L-aspartate-alpha-decarboxylase, panD-wt) (Bacillus subtilis subsp. subtilis str. 168; A99E/DEL126-127/I88M/K113R/K63N/S7N) (protein)
chain 1: MYRTMMNGKLHRATVTEANLNYVG
chain 2: SITIDEDLIDAVGMLPNEKVQIVNNNNGARLETYIIPGNRGSGVICLNGAAARLVQEGDKVIIMSYKMMSDQEAESHEPKVAVLNDQNRIEQMLGNEPART
Km [1]: 3.22 ± 0.15 mM
kcat [1]: 8.29 s⁻¹
kcat/Km [1]: 2570 M⁻¹ s⁻¹

B2: BsADC (L-aspartate-alpha-decarboxylase, panD-wt) (Bacillus subtilis subsp. subtilis str. 168; A99E/DEL126-127/I88M/K113R/K63N/S7Y) (protein)
chain 1: MYRTMMYGKLHRATVTEANLNYVG
chain 2: B1 chain 2
Km [2]: 3.82 ± 0.29 mM
kcat [2]: 7.26 s⁻¹
kcat/Km [2]: 1900 M⁻¹ s⁻¹

B3: BsADC (L-aspartate-alpha-decarboxylase, panD-wt) (Bacillus subtilis subsp. subtilis str. 168) (protein)
chain 1: MYRTMMSGKLHRATVTEANLNYVG
chain 2: SITIDEDLIDAVGMLPNEKVQIVNNNNGARLETYIIPGKRGSGVICLNGAAARLVQEGDKVIIISYKMMSDQEAASHEPKVAVLNDQNKIEQMLGNEPARTIL
Km: 3.69 ± 0.33 mM
kcat: 4.25 s⁻¹
kcat/Km: 1150 M⁻¹ s⁻¹
